Assay results as given in the RNAGym collection of RNA variant scans (doi:10.1093/molbev/msab373).

B1: Azoarcus group I ribozyme (parent)
chain: GUGCCUUGCGCCGGGAAACCACGCAAGGGAUGGUGUCAAAUUCGGCGAAACCUAAGCGCCCGCCCGGGCGUAUGGCAACGCCGAGCCAAGCUUCGGCGCCUGCGCCGAUGAAGGUGUAGAGACUAGACGGCACCCACCUAAGGCAAACGCUAUGGUGAAGGCAUAGUCCAGGGAGUGGCGAAAGUCACACAAACCGG

Variants of: B1
Experiment: reverse-splicing fitness (ratio to wild type); higher = more active; in vitro selection; Mg2+ level not given
Method in brief: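 An in vitro group I ribozyme library with randomized positions was T7-transcribed and gel-purified. In triplicate, 10 pmol RNA in EPPS pH 7.5 was reacted with 50 pmoles of a 30-nt RNA substrate for 1 h at 37 °C across several added MgCl2 levels (1–48 mM), then stopped with EDTA. Products were reverse transcribed from a substrate-complementary primer, PCR-amplified and sequenced (HiSeq 4000). Fitness is a variant's read proportion after selection over that before, normalised to wild type.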

Variant	reverse-splicing fitness
GUGCCUUGCGCCGGGAAACCACGCAAGGGAUGGUGUCAAAUUCGGCGAAACCUAAGCGCCCGCCCGGGCGUAUGGCAACGCCGAGCCAAGCUUCGGCGCCUGCGCCGAUGUAGGUGUAGGGACUAGACGGCACCCACCUAAGGCAAACGUUAUGGUGAAGGCAUAGUCUAGGGAGGGGCGAAAGUCACACAAACCGG [A111U A120G C150U C169U U176G]	0.00701
GUGCCUUGCGCCGGGAAACCACGCAAGGGAUGGUGUCAAAUUCGGCGAAACCUAAGCGCCCGCCCGGGCGUAUGGCAACGCCGAGCCAAGCUUCGGCGCCUGCGCCGAUGUAGGUGUAGGGACUAGACGGCACCCACCUAAGGCAAACGUUAUGGUGAAGGCAUAGUCUAGGGAGAGGCGAAAGUCACACAAACCGG [A111U A120G C150U C169U U176A]	0.0401
GUGCCUUGCGCCGGGAAACCACGCAAGGGAUGGUGUCAAAUUCGGCGAAACCUAAGCGCCCGCCCGGGCGUAUGGCAACGCCGAGCCAAGCUUCGGCGCCUGCGCCGAUGUAGGUGUAGGGACUAGACGGCACCCACCUAAGGCAAACGUUAUGGUGAAGGCAUAGUCUAGGGAGCGGCGAAAGUCACACAAACCGG [A111U A120G C150U C169U U176C]	0.0386
GUGCCUUGCGCCGGGAAACCACGCAAGGGAUGGUGUCAAAUUCGGCGAAACCUAAGCGCCCGCCCGGGCGUAUGGCAACGCCGAGCCAAGCUUCGGCGCCUGCGCCGAUGUAGGUGUAGGGACUAGACGGCACCCACCUAAGGCAAACGUUAUGGUGAAGGCAUAGUCAAGGGAGCGGCGAAAGUCACACAAACCGG [A111U A120G C150U C169A U176C]	0.0245
GUGCCUUGCGCCGGGAAACCACGCAAGGGAUGGUGUCAAAUUCGGCGAAACCUAAGCGCCCGCCCGGGCGUAUGGCAACGCCGAGCCAAGCUUCGGCGCCUGCGCCGAUGUAGGUGUAGGGACUAGACGGCACCCACCUAAGGCAAACGUUAUGGUGAAGGCAUAGUCAAGGGAGAGGCGAAAGUCACACAAACCGG [A111U A120G C150U C169A U176A]	0.0189
GUGCCUUGCGCCGGGAAACCACGCAAGGGAUGGUGUCAAAUUCGGCGAAACCUAAGCGCCCGCCCGGGCGUAUGGCAACGCCGAGCCAAGCUUCGGCGCCUGCGCCGAUGUAGGUGUAGGGACUAGACGGCACCCACCUAAGGCAAACGUUAUGGUGAAGGCAUAGUCAAGGGAGGGGCGAAAGUCACACAAACCGG [A111U A120G C150U C169A U176G]	0.00517
GUGCCUUGCGCCGGGAAACCACGCAAGGGAUGGUGUCAAAUUCGGCGAAACCUAAGCGCCCGCCCGGGCGUAUGGCAACGCCGAGCCAAGCUUCGGCGCCUGCGCCGAUGUAGGUGUAGGGACUAGACGGCACCCACCUAAGGCAAACGCUAUGGUGAAGGCAUAGUCUAGGGAGCGGCGAAAGUCACACAAACCGG [A111U A120G C169U U176C]	0.055
GUGCCUUGCGCCGGGAAACCACGCAAGGGAUGGUGUCAAAUUCGGCGAAACCUAAGCGCCCGCCCGGGCGUAUGGCAACGCCGAGCCAAGCUUCGGCGCCUGCGCCGAUGUAGGUGUAGGGACUAGACGGCACCCACCUAAGGCAAACGCUAUGGUGAAGGCAUAGUCUAGGGAGAGGCGAAAGUCACACAAACCGG [A111U A120G C169U U176A]	0.0505
GUGCCUUGCGCCGGGAAACCACGCAAGGGAUGGUGUCAAAUUCGGCGAAACCUAAGCGCCCGCCCGGGCGUAUGGCAACGCCGAGCCAAGCUUCGGCGCCUGCGCCGAUGUAGGUGUAGGGACUAGACGGCACCCACCUAAGGCAAACGCUAUGGUGAAGGCAUAGUCUAGGGAGGGGCGAAAGUCACACAAACCGG [A111U A120G C169U U176G]	0.00807
GUGCCUUGCGCCGGGAAACCACGCAAGGGAUGGUGUCAAAUUCGGCGAAACCUAAGCGCCCGCCCGGGCGUAUGGCAACGCCGAGCCAAGCUUCGGCGCCUGCGCCGAUGUAGGUGUAGGGACUAGACGGCACCCACCUAAGGCAAACGUUAUGGUGAAGGCAUAGUCGAGGGAGUGGCGAAAGUCACACAAACCGG [A111U A120G C150U C169G]	0.112
GUGCCUUGCGCCGGGAAACCACGCAAGGGAUGGUGUCAAAUUCGGCGAAACCUAAGCGCCCGCCCGGGCGUAUGGCAACGCCGAGCCAAGCUUCGGCGCCUGCGCCGAUGUAGGUGUAGGGACUAGACGGCACCCACCUAAGGCAAACGUUAUGGUGAAGGCAUAGUCAAGGGAGUGGCGAAAGUCACACAAACCGG [A111U A120G C150U C169A]	0.0593
GUGCCUUGCGCCGGGAAACCACGCAAGGGAUGGUGUCAAAUUCGGCGAAACCUAAGCGCCCGCCCGGGCGUAUGGCAACGCCGAGCCAAGCUUCGGCGCCUGCGCCGAUGUAGGUGUAGGGACUAGACGGCACCCACCUAAGGCAAACGUUAUGGUGAAGGCAUAGUCUAGGGAGUGGCGAAAGUCACACAAACCGG [A111U A120G C150U C169U]	0.0857
GUGCCUUGCGCCGGGAAACCACGCAAGGGAUGGUGUCAAAUUCGGCGAAACCUAAGCGCCCGCCCGGGCGUAUGGCAACGCCGAGCCAAGCUUCGGCGCCUGCGCCGAUGUAGGUGUAGGGACUAGACGGCACCCACCUAAGGCAAACGCUAUGGUGAAGGCAUAGUCCAGGGAGAGGCGAAAGUCACACAAACCGG [A111U A120G U176A]	0.0388
GUGCCUUGCGCCGGGAAACCACGCAAGGGAUGGUGUCAAAUUCGGCGAAACCUAAGCGCCCGCCCGGGCGUAUGGCAACGCCGAGCCAAGCUUCGGCGCCUGCGCCGAUGUAGGUGUAGGGACUAGACGGCACCCACCUAAGGCAAACGCUAUGGUGAAGGCAUAGUCAAGGGAGUGGCGAAAGUCACACAAACCGG [A111U A120G C169A]	0.116
GUGCCUUGCGCCGGGAAACCACGCAAGGGAUGGUGUCAAAUUCGGCGAAACCUAAGCGCCCGCCCGGGCGUAUGGCAACGCCGAGCCAAGCUUCGGCGCCUGCGCCGAUGUAGGUGUAGGGACUAGACGGCACCCACCUAAGGCAAACGCUAUGGUGAAGGCAUAGUCUAGGGAGUGGCGAAAGUCACACAAACCGG [A111U A120G C169U]	0.155
